Measured values taken from the supplement of paper PMC10567573.

B1: SMTNL2 (parent)
chain: ETAAGKGKGEARARLKRSQSFGVA
B2: P2RY14 (parent)
chain: KKIFKSHLKSSRNSTSVKKKSSRN

Variants of: B1
Experiment: protein stability index of a GFP-peptide fusion (GPS, HEK-293T) (PSI 1-6); higher = more stable
Settings: c terminus: a fixed tail appended
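Also: lentivirally expressed fusions sorted by FACS into six bins by GFP to DsRed ratio, PSI derived from sequencing read proportions per bin multiplied by bin number.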

Question: Which protein stability index does the source give for K8F here?
Answer: 4.29

Question: Which protein stability index does the source give for K8T here?
Answer: 4.08

Question: Which protein stability index does the source give for K8S here?
Answer: 4.43

Question: With K8G as the variant, how does the protein stability index read?
Answer: 3.96

Question: For K8I, which protein stability index is on record?
Answer: 4.12

Question: Which protein stability index does the source give for K8A here?
Answer: 5.13

Question: With K8Q as the variant, how does the protein stability index read?
Answer: 5.13

Question: For K8Y, which protein stability index is on record?
Answer: 4.2

Question: Which protein stability index does the source give for K8W here?
Answer: 3.87

Question: With K8C as the variant, how does the protein stability index read?
Answer: 4.17

Question: For K8L, which protein stability index is on record?
Answer: 4

Question: With K8P as the variant, how does the protein stability index read?
Answer: 4.54

Question: For K8H, which protein stability index is on record?
Answer: 4.44

Question: For K8N, which protein stability index is on record?
Answer: 4.8

Question: Which protein stability index does the source give for K8D here?
Answer: 5.01

Question: Which protein stability index does the source give for K6I here?
Answer: 4.54

Question: With K6H as the variant, how does the protein stability index read?
Answer: 4.53

Question: Which protein stability index does the source give for K6G here?
Answer: 3.58

Question: With K6T as the variant, how does the protein stability index read?
Answer: 4.78

Question: Which protein stability index does the source give for K6C here?
Answer: 2.43

Question: With K6Y as the variant, how does the protein stability index read?
Answer: 3.9

Question: For K6P, which protein stability index is on record?
Answer: 4.59

Question: With K6V as the variant, how does the protein stability index read?
Answer: 4.23

Question: Which protein stability index does the source give for K6A here?
Answer: 4.62

Question: With K6N as the variant, how does the protein stability index read?
Answer: 4.32

Question: For K6Q, which protein stability index is on record?
Answer: 3.41

Question: Which protein stability index does the source give for K6W here?
Answer: 3.79

Question: Which protein stability index does the source give for K6E here?
Answer: 5.05

Question: Which protein stability index does the source give for K6D here?
Answer: 4.85

Question: For K6M, which protein stability index is on record?
Answer: 3.87

Question: With K6L as the variant, how does the protein stability index read?
Answer: 4.04

Question: Which protein stability index does the source give for K6S here?
Answer: 4.62

Question: Which protein stability index does the source give for K6F here?
Answer: 4.56

Question: With K6R as the variant, how does the protein stability index read?
Answer: 4.39

Question: With E1Y as the variant, how does the protein stability index read?
Answer: 3

Question: With E1C as the variant, how does the protein stability index read?
Answer: 4.05

Question: For E1A, which protein stability index is on record?
Answer: 3.91

Question: With E1H as the variant, how does the protein stability index read?
Answer: 3.94

Question: With E1P as the variant, how does the protein stability index read?
Answer: 4.09

Question: For E1W, which protein stability index is on record?
Answer: 3.63

Question: For E1D, which protein stability index is on record?
Answer: 4.49

Question: Which protein stability index does the source give for E1K here?
Answer: 3.82

Question: With E1T as the variant, how does the protein stability index read?
Answer: 3.72

Question: With E1M as the variant, how does the protein stability index read?
Answer: 3.88

Question: For E1I, which protein stability index is on record?
Answer: 3.58

Question: Which protein stability index does the source give for E1R here?
Answer: 3.82

Question: Which protein stability index does the source give for E1V here?
Answer: 3.33

Question: For E1F, which protein stability index is on record?
Answer: 3.21

Question: Which protein stability index does the source give for E1Q here?
Answer: 4.03

Question: With E1S as the variant, how does the protein stability index read?
Answer: 4.48

Question: For E1N, which protein stability index is on record?
Answer: 4.35

Question: With E1G as the variant, how does the protein stability index read?
Answer: 4.54

Question: For E1L, which protein stability index is on record?
Answer: 4.18

Question: Which protein stability index does the source give for A4P here?
Answer: 4.54

Question: With A4S as the variant, how does the protein stability index read?
Answer: 4.02

Question: Which protein stability index does the source give for A4L here?
Answer: 3.81

Question: With A4V as the variant, how does the protein stability index read?
Answer: 3.99

Question: Which protein stability index does the source give for A4N here?
Answer: 4.13

Question: With A4T as the variant, how does the protein stability index read?
Answer: 4.67

Question: For A4C, which protein stability index is on record?
Answer: 4.46

Question: For A4M, which protein stability index is on record?
Answer: 4.71

Question: Which protein stability index does the source give for A4Y here?
Answer: 4.77

Question: Which protein stability index does the source give for A4R here?
Answer: 4.46

Question: With A4Q as the variant, how does the protein stability index read?
Answer: 4.78

Question: For A4W, which protein stability index is on record?
Answer: 3.98

Question: For A4G, which protein stability index is on record?
Answer: 4.29

Question: Which protein stability index does the source give for A4I here?
Answer: 4.24

Question: For A4K, which protein stability index is on record?
Answer: 4.81

Question: Which protein stability index does the source give for A4H here?
Answer: 4.3

Question: Which protein stability index does the source give for A4E here?
Answer: 5.09

Variants of: B2
Experiment: as above
Settings: c terminus: a fixed tail appended

Question: Which protein stability index does the source give for N24P here?
Answer: 3.91

Question: For N24V, which protein stability index is on record?
Answer: 4.11

Question: Which protein stability index does the source give for N24H here?
Answer: 4.38

Question: Which protein stability index does the source give for N24E here?
Answer: 3.91

Question: For N24F, which protein stability index is on record?
Answer: 3.61

Question: With N24Q as the variant, how does the protein stability index read?
Answer: 4.23

Question: With N24W as the variant, how does the protein stability index read?
Answer: 3.6

Question: Which protein stability index does the source give for N24C here?
Answer: 3.55

Question: For N24I, which protein stability index is on record?
Answer: 3.61

Question: Which protein stability index does the source give for N24S here?
Answer: 4.07

Question: With N24Y as the variant, how does the protein stability index read?
Answer: 3.46

Question: For N24K, which protein stability index is on record?
Answer: 3.81

Question: Which protein stability index does the source give for N24L here?
Answer: 4.12

Question: For N24T, which protein stability index is on record?
Answer: 4.28

Question: With N24A as the variant, how does the protein stability index read?
Answer: 4.14

Question: Which protein stability index does the source give for N24D here?
Answer: 4.29

Question: For N24R, which protein stability index is on record?
Answer: 4.16

Question: Which protein stability index does the source give for N24M here?
Answer: 3.3

Question: With N24G as the variant, how does the protein stability index read?
Answer: 4.57

Question: Which protein stability index does the source give for R23K here?
Answer: 4.2

Question: With R23C as the variant, how does the protein stability index read?
Answer: 3.91

Question: Which protein stability index does the source give for R23N here?
Answer: 4.25

Question: With R23V as the variant, how does the protein stability index read?
Answer: 4.1

Question: Which protein stability index does the source give for R23W here?
Answer: 3.51

Question: Which protein stability index does the source give for R23I here?
Answer: 3.67

Question: For R23P, which protein stability index is on record?
Answer: 3.73

Question: With R23D as the variant, how does the protein stability index read?
Answer: 4.1

Question: For R23E, which protein stability index is on record?
Answer: 4.18

Question: For R23L, which protein stability index is on record?
Answer: 3.51

Question: For R23A, which protein stability index is on record?
Answer: 4.05

Question: For R23S, which protein stability index is on record?
Answer: 4.28

Question: For R23F, which protein stability index is on record?
Answer: 3.42

Question: With R23H as the variant, how does the protein stability index read?
Answer: 3.57

Question: Which protein stability index does the source give for R23Y here?
Answer: 4.07

Question: For R23T, which protein stability index is on record?
Answer: 3.88

Question: With R23G as the variant, how does the protein stability index read?
Answer: 3.94

Question: Which protein stability index does the source give for R23Q here?
Answer: 4.38

Question: Which protein stability index does the source give for R23M here?
Answer: 3.76

Question: For K19W, which protein stability index is on record?
Answer: 2.96

Question: Which protein stability index does the source give for K19Y here?
Answer: 3.17

Question: For S21D, which protein stability index is on record?
Answer: 4.42

Question: Which protein stability index does the source give for S21K here?
Answer: 4.48

Question: Which protein stability index does the source give for S21V here?
Answer: 4.14

Question: For S21M, which protein stability index is on record?
Answer: 3.92

Question: For S21Y, which protein stability index is on record?
Answer: 3.38

Question: With S21H as the variant, how does the protein stability index read?
Answer: 4.22

Question: Which protein stability index does the source give for S21T here?
Answer: 3.8

Question: Which protein stability index does the source give for S21P here?
Answer: 3.72

Question: With S21R as the variant, how does the protein stability index read?
Answer: 4.27

Question: For S21G, which protein stability index is on record?
Answer: 3.8

Question: Which protein stability index does the source give for S21A here?
Answer: 3.98

Question: With S21N as the variant, how does the protein stability index read?
Answer: 4.17

Question: For S21I, which protein stability index is on record?
Answer: 3.98

Question: With S21W as the variant, how does the protein stability index read?
Answer: 3.3

Question: With S21F as the variant, how does the protein stability index read?
Answer: 3.73

Question: For S21E, which protein stability index is on record?
Answer: 3.8

Question: With S21L as the variant, how does the protein stability index read?
Answer: 3.77

Question: Which protein stability index does the source give for S21Q here?
Answer: 3.88

Question: For S21C, which protein stability index is on record?
Answer: 3.84

Question: Which protein stability index does the source give for K20C here?
Answer: 3.67

Question: Which protein stability index does the source give for K20F here?
Answer: 2.75

Question: For K20Y, which protein stability index is on record?
Answer: 3.95

Question: With K20T as the variant, how does the protein stability index read?
Answer: 3.62

Question: With K20I as the variant, how does the protein stability index read?
Answer: 3.5

Question: For K20H, which protein stability index is on record?
Answer: 3.62

Question: For K20P, which protein stability index is on record?
Answer: 3.83

Question: With K20A as the variant, how does the protein stability index read?
Answer: 3.64

Question: Which protein stability index does the source give for K20S here?
Answer: 4.07

Question: Which protein stability index does the source give for K20W here?
Answer: 3.15

Question: Which protein stability index does the source give for K20N here?
Answer: 3.86

Question: Which protein stability index does the source give for K20G here?
Answer: 3.43

Question: For K20E, which protein stability index is on record?
Answer: 3.75

Question: Which protein stability index does the source give for K20V here?
Answer: 3.81

Question: With K20D as the variant, how does the protein stability index read?
Answer: 3.89

Question: For K20R, which protein stability index is on record?
Answer: 4.39

Question: For K20Q, which protein stability index is on record?
Answer: 4.04

Question: Which protein stability index does the source give for K20L here?
Answer: 3.42

Question: With K20M as the variant, how does the protein stability index read?
Answer: 3.48

Question: Which protein stability index does the source give for S22I here?
Answer: 5.05

Question: For S22V, which protein stability index is on record?
Answer: 4.33

Question: For S22L, which protein stability index is on record?
Answer: 3.48

Question: With S22A as the variant, how does the protein stability index read?
Answer: 4.01

Question: For S22R, which protein stability index is on record?
Answer: 4.13

Question: Which protein stability index does the source give for S22F here?
Answer: 2.92

Question: With S22G as the variant, how does the protein stability index read?
Answer: 4.32

Question: With S22M as the variant, how does the protein stability index read?
Answer: 4.19

Question: With S22P as the variant, how does the protein stability index read?
Answer: 4.21

Question: With S22T as the variant, how does the protein stability index read?
Answer: 4.19

Question: For S22D, which protein stability index is on record?
Answer: 4

Question: With S22K as the variant, how does the protein stability index read?
Answer: 4.43

Question: For S22N, which protein stability index is on record?
Answer: 4.2

Question: Which protein stability index does the source give for S22E here?
Answer: 4.06

Question: For S22H, which protein stability index is on record?
Answer: 4.64

Question: For S22C, which protein stability index is on record?
Answer: 4.07

Question: For S22Y, which protein stability index is on record?
Answer: 3.56

Question: Which protein stability index does the source give for S22Q here?
Answer: 4.49

Question: For S22W, which protein stability index is on record?
Answer: 3.33
